Measured values: patent US12678474B2, “Screening of fixed-point coupling sites of cysteine-modified antibody-toxin conjugate (TDC)” (SICHUAN BAILI PHARMACEUTICAL CO. LTD., priority 2017, dated 2026)
Positions count from the first letter of the chain named.

B1: 2A1-HC-Cys379ins: 2A1 antibody with cysteine inserted at heavy chain position 379 (SEQ ID NO: 38) (antibody)
heavy: DVQLQESGPSLVKPSQSLSLTCTVTGYSITSDFAWNWIRQFPGNKLEWMGYISYSGNTRYNPSLKSRISITRDTSKNQFFLQLNSVTIEDTATYYCVTAGRGFPYWGQGTLVTVSAASTKGPSVFPLAPSSKSTSGGTAALGCLVKDYFPEPVTVSWNSGALTSGVHTFPAVLQSSGLYSLSSVVTVPSSSLGTQTYICNVNHKPSNTKVDKRVEPKSCDKTHTCPPCPAPEFLGGPSVFLFPPKPKDTLMISRTPEVTCVVVDVSHEDPEVKFNWYVDGVEVHNAKTKPREEQYNSTYRVVSVLTVLHQDWLNGKEYKCKVSNKALPAPIEKTISKAKGQPREPQVYTLPPSRDELTKNQVSLTCLVKGFYPSDIAVEWECSNGQPENNYKTTPPVLDSDGSFFLYSKLTVDKSRWQQGNVFSCSVMHEALHNHYTQKSLSLSPG
light: DILMTQSPSSMSVSLGDTVSITCHSSQDINSNIGWLQQRPGKSFKGLIYHGTNLDDEVPSRFSGSGSGADYSLTISSLESEDFADYYCVQYAQFPWTFGGGTKLEIKRTVAAPSVFIFPPSDEQLKSGTASVVCLLNNFYPREAKVQWKVDNALQSGNSQESVTEQDSKDSTYSLSSTLTLSKADYEKHKVYACEVTHQGLSSPVTKSFNRGEC
B2: 2A1-HC-Cys255ins: 2A1 antibody with cysteine inserted at heavy chain position 255 (SEQ ID NO: 24) (antibody)
heavy: DVQLQESGPSLVKPSQSLSLTCTVTGYSITSDFAWNWIRQFPGNKLEWMGYISYSGNTRYNPSLKSRISITRDTSKNQFFLQLNSVTIEDTATYYCVTAGRGFPYWGQGTLVTVSAASTKGPSVFPLAPSSKSTSGGTAALGCLVKDYFPEPVTVSWNSGALTSGVHTFPAVLQSSGLYSLSSVVTVPSSSLGTQTYICNVNHKPSNTKVDKRVEPKSCDKTHTCPPCPAPEFLGGPSVFLFPPKPKDTLMISRTPECVTCVVVDVSHEDPEVKFNWYVDGVEVHNAKTKPREEQYNSTYRVVSVLTVLHQDWLNGKEYKCKVSNKALPAPIEKTISKAKGQPREPQVYTLPPSRDELTKNQVSLTCLVKGFYPSDIAVEWESNGQPENNYKTTPPVLDSDGSFFLYSKLTVDKSRWQQGNVFSCSVMHEALHNHYTQKSLSLSPG
light: B1 light
B3: 2A1-HC-Cys254ins: 2A1 antibody with cysteine inserted at heavy chain position 254 (SEQ ID NO: 22) (antibody)
heavy: B2 heavy with E257C, C258E
light: B1 light
B4: 2A1-HC-Cys355ins: 2A1 antibody with cysteine inserted at heavy chain position 355 (SEQ ID NO: 32) (antibody)
heavy: DVQLQESGPSLVKPSQSLSLTCTVTGYSITSDFAWNWIRQFPGNKLEWMGYISYSGNTRYNPSLKSRISITRDTSKNQFFLQLNSVTIEDTATYYCVTAGRGFPYWGQGTLVTVSAASTKGPSVFPLAPSSKSTSGGTAALGCLVKDYFPEPVTVSWNSGALTSGVHTFPAVLQSSGLYSLSSVVTVPSSSLGTQTYICNVNHKPSNTKVDKRVEPKSCDKTHTCPPCPAPEFLGGPSVFLFPPKPKDTLMISRTPEVTCVVVDVSHEDPEVKFNWYVDGVEVHNAKTKPREEQYNSTYRVVSVLTVLHQDWLNGKEYKCKVSNKALPAPIEKTISKAKGQPREPQVYTLPPSRDELCTKNQVSLTCLVKGFYPSDIAVEWESNGQPENNYKTTPPVLDSDGSFFLYSKLTVDKSRWQQGNVFSCSVMHEALHNHYTQKSLSLSPG
light: B1 light
B5: 2A1-HC-Cys258ins: 2A1 antibody with cysteine inserted at heavy chain position 258 (SEQ ID NO: 26) (antibody)
heavy: B2 heavy with C258V, V259T, T260C
light: B1 light
B6: 2A1-HC-Cys259ins: 2A1 antibody with cysteine inserted at heavy chain position 259 (SEQ ID NO: 28) (antibody)
heavy: B2 heavy with C258V, V259T, T260C, C261V, V262C
light: B1 light
B7: 2A1-HC-Cys386ins: 2A1 antibody with cysteine inserted at heavy chain position 386 (SEQ ID NO: 40) (antibody)
heavy: B1 heavy with C382S, S383N, N384G, G385Q, Q386P, P387E, E388N, N389C
light: B1 light
B8: 2A1-HC-Cys378ins: 2A1 antibody with cysteine inserted at heavy chain position 378 (SEQ ID NO: 36) (antibody)
heavy: B1 heavy with E381C, C382E
light: B1 light
B9: 2A1-HC-Cys354ins: 2A1 antibody with cysteine inserted at heavy chain position 354 (SEQ ID NO: 30) (antibody)
heavy: B4 heavy with L357C, C358L
light: B1 light
B10: 2A1-HC-Cys357ins: 2A1 antibody with cysteine inserted at heavy chain position 357 (SEQ ID NO: 34) (antibody)
heavy: B4 heavy with C358T, T359K, K360C
light: B1 light

Columns and labels:
[1] = system: EFGRvIII-overexpressing human glioma cell line U87-EGFRvIII; assay: MTS cytotoxicity (cell viability) assay, U87-EGFRvIII; format: cell-based; conditions: antibodies; 72 hours; read-out: IC50, U87MG-EGFRvIII (MTS)
Procedure: (§1) TDC cytotoxic activity was determined via the following experimental procedure: TDC was added to EGFR-overexpressing or […]-expressing human tumor cell culture medium, and cell viability was determined after 72 hours of cell culture. Cell-based in vitro experiments were used to determine cell viability, cytotoxicity and programmed cell death induced by TDC constituted by the present invention.
(§2) In vitro efficacy of antibody-toxin conjugates was determined via a cell proliferation assay. A CellTiter ^96® AqueousOne Solution Cell was Proliferation Assay purchased commercially from Promega Corp. (Madison, WI). CellTiter ^96® Aqueous One Solution Cell Proliferation Assay (a) is a colorimetric method used to detect the number of living cells in cell proliferation and cytotoxicity experiments. The above reagent contains the novel tetrazole compound [3-(4,5-dimethylthiazol-2-yl)-5-(3-carboxymethoxyphenyl)-2-(4-sulfophenyl)-2H-tetrazolium, inner salt; MTS) as well as an electronic coupling agent (phenazine ethosulfate; PES). […] This convenient “single solution” model is an improvement on the first generation of the CellTiter ^96® Aqueous Assay, in which the electronic coupling agent PMS was supplied separately from the MTS solution. MTS (Owen's reagent) is reduced by cellular organisms into a colored formazan product, which can be directly dissolved in culture medium (FIG. 1). This conversion is likely facilitated by NADPH NADH produced by dehydrogenase present in metabolically active cells. For the assay, a small amount of CellTiter ^96® Aqueous One Solution Reagent is added directly to the medium present in the wells of the culture plate, after which incubation is performed for 1 to 4 hours, followed by reading of the absorbance value at 490 nm using a microplate reader.
(§3) The amount of formazan product detected at 490 nm is proportional to the number of viable cells in culture. Because the formazan product of MTS is soluble in tissue culture medium, CellTiter ^96® Aqueous One Solution Assay requires fewer steps than the MTT or INT methods. A431 (EGFR-overexpressing cells) and U87-[…] (an […] mutant stable cell line) were used in the present invention as an investigative system for performing in vitro efficacy assays. In 96-well plates, cells were plated at 6000 cells/well and 24 hours later, antibody spiking was carried out. […] Cell viability was assayed via MTS 72 hours after treatment.

[2] = molecular target: T1, Recombinant EGFRVIII-His*6 antigen (Homo sapiens, UniProt P00533, DELINS30-297G); assay: ELISA relative affinity for EGFRvIII; format: binding; conditions: for EC50: EGFRvIII-coated plates, A450, read-out: EC50 (nM), mutant antibody affinity
T1 construct: His*6
Description: Insertion Mutation Modification and Parent Antibody 2A1 for EGFRvIII • ELISA was used to compare the relative affinities of 2A1-LC-Cys110ins-mc-vc-PAB-MMAE TDC, 2A1-LC-Cys111ins-mc-vc-PAB-MMAE TDC, 2A1-LC-Cys142ins-mc-vc-PAB-MMAE TDC, 2A1-HC-Cys254ins-mc-vc-PAB-MMAE TDC, 2A1-HC-Cys255ins-mc-vc-PAB-MMAE TDC, 2A1-HC-Cys258ins-mc-vc-PAB-MMAE TDC, 2A1-HC-Cys259ins-mc-vc-PAB-MMAE TDC, 2A1-HC-Cys354ins-mc-vc-PAB-MMAE TDC, 2A1-HC-Cys355ins-mc-vc-PAB-MMAE TDC, 2A1-HC-Cys357ins-mc-vc-PAB-MMAE TDC, 2A1-HC-Cys378ins-mc-vc-PAB-MMAE TDC, 2A1-HC-Cys379ins-mc-vc-PAB-MMAE TDC, 2A1-HC-Cys386ins-mc-vc-PAB-MMAE TDC, 2A1-HC-Cys387ins-mc-vc-PAB-MMAE TDC, 2A1-HC-Cys410ins-mc-vc-PAB-MMAE TDC, and 2A1 for EGFRvIII. The specific process used was as follows:
Recombinant […]-His*6 antigen was used to coat plates; fish skin gelatin was used as a seal; dilution of each insertion mutant antibody was performed separately, up to a maximum concentration 10 μg/ml and a 4-fold gradient dilution was performed for a total of 11 concentrations; HRP-labeled secondary antibodies were used for incubation; TMB was used for development and absorption detection was performed at 450 nm.

[3] = system: EGFRwt-overexpressing human skin squamous cell carcinoma cell line A431; assay: MTS cytotoxicity (cell viability) assay, A431; format: cell-based; conditions: antibodies; 72 hours
Procedure: as §1, §2, §3

Molecule	IC50 [1] [µM]	Affinity for EGFRvIII relative to 2A1 (in words) [2]	EC50 [2] [nM]	IC50 [3] [µM]
B1	> 10	maintained 2A1 affinity	0.0409	> 10
B2	> 10	maintained 2A1 affinity	0.039	> 10
B3	> 10	maintained 2A1 affinity	0.0456	> 10
B4	> 10	maintained 2A1 affinity	0.0415	> 10
B5	> 10	maintained 2A1 affinity	0.0423	> 10
B6	> 10	maintained 2A1 affinity	0.0431	> 10
B7	> 10	maintained 2A1 affinity	0.0435	> 10
B8	> 10		0.0404	> 10
B9	> 10	maintained 2A1 affinity	0.0405	> 10
B10	> 10		0.0403	> 10
